± gives the standard deviation of the averaged measurements.
Experiment: total protein half-life in vivo (active degradation + dilution); higher = more stable protein
[1] = E. coli NCM3722 delta-clpP delta-lon delta-hslV, growth: N-lim chemostat, doubling time 6 h
[2] = E. coli NCM3722 delta-clpP, growth: N-lim chemostat, doubling time 6 h
[3] = E. coli NCM3722 delta-hslV, growth: N-lim chemostat, doubling time 6 h
[4] = E. coli NCM3722 delta-lon, growth: N-lim chemostat, doubling time 6 h
[5] = E. coli NCM3722 delta-smpB, growth: N-lim chemostat, doubling time 6 h
[6] = wild type E. coli NCM3722, growth: C-lim chemostat, doubling time 3 h
[7] = wild type E. coli NCM3722, growth: C-lim chemostat, doubling time 6 h
[8] = wild type E. coli NCM3722, growth: C-lim chemostat, doubling time 12 h
[9] = wild type E. coli NCM3722, growth: N-lim chemostat, doubling time 6 h
[10] = wild type E. coli NCM3722, growth: N-lim chemostat, doubling time 12 h
[11] = wild type E. coli NCM3722, growth: P-lim chemostat, doubling time 6 h
[12] = wild type E. coli NCM3722, growth: P-lim chemostat, doubling time 12 h

Sequence | total protein half-life in vivo [1] [h] | total protein half-life in vivo [2] [h] | total protein half-life in vivo [3] [h] | total protein half-life in vivo [4] [h] | total protein half-life in vivo [5] [h] | total protein half-life in vivo [6] [h] | total protein half-life in vivo [7] [h] | total protein half-life in vivo [8] [h] | total protein half-life in vivo [9] [h] | total protein half-life in vivo [10] [h] | total protein half-life in vivo [11] [h] | total protein half-life in vivo [12] [h]
MMNDSFCRIIAGEIQARPEQVDAAVRLLDEGNTVPFIARYRKEITGGLDDTQLRNLETRLSYLRELEERRQAILKSISEQGKLTDDLAKAINATLSKTELEDLYLPYKPKRRTRGQIAIEAGLEPLADLLWSDPSHTPEVAAAQYVYADKGVADTKAALDGARYILMERFAEDAALLAKVRDYLWKNAHLVSTVVSGKEEEGAKFRDYFDHHEPLSTVPSHRALAMFRGRNEGVLQLSLNADPQFDEPPKESYCEQIIMDHLGLRLNNAPADSWRKGVVSWTWRIKVLMHLETELMGTVRERAEDEAINVFARNLHDLLMAAPAGLRATMGLDPGLRTGVKVAVVDATGKLVATDTIYPHTGQAAKAAMTVAALCEKHNVELVAIGNGTASRETERFYLDVQKQFPKVTAQKVIVSEAGASVYSASELAAQEFPDLDVSLRGAVSIARRLQDPLAELVKIDPKSIGVGQYQHDVSQTQLARKLDAVVEDCVNAVGVDLNTASVPLLTRVAGLTRMMAQNIVAWRDENGQFQNRQQLLKVSRLGPKAFEQCAGFLRINHGDNPLDASTVHPEAYPVVERILAATQQALKDLMGNSSELRNLKASDFTDEKFGVPTVTDIIKELEKPGRDPRPEFKTAQFADGVETMNDLQPGMILEGAVTNVTNFGAFVDIGVHQDGLVHISSLSNKFVEDPHTVVKAGDIVKVKVLEVDLQRKRIALTMRLDEQPGETNARRGGGNERPQNNRPAAKPRGREAQPAGNSAMMDALAAAMGKKR | 5.48 ± 0.19 | 4.8 ± 0.3 | 3.58 ± 0.041 | 4.124 ± 0.019 | 3.26 ± 0.074 | 2.49 ± 0.14 | 4.69 ± 0.19 | 7.55 ± 0.32 | 3.63 ± 0.087 | 5.457 ± 0.049 | 3.88 ± 0.065 | 6.81 ± 0.56
MMPEIGNGLLCLALGIALLLSVYPLWGVARGDARMMASSRLFAWLLFMSVAGAFLVLVNAFVVNDFTVTYVASNSNTQLPVWYRVAATWGAHEGSLLLWVLLMSGWTFAVAIFSQRIPLDIVARVLAIMGMVSVGFLLFILFTSNPFSRTLPNFPIEGRDLNPLLQDPGLIFHPPLLYMGYVGFSVAFAFAIASLLSGRLDSTYARFTRPWTLAAWIFLTLGIVLGSAWAYYELGWGGWWFWDPVENASFMPWLVGTALMHSLAVTEQRASFKAWTLLLAISAFSLCLLGTFLVRSGVLVSVHAFASDPARGMFILAFMVLVIGGSLLLFAARGHKVRSRVNNALWSRESLLLANNVLLVAAMLVVLLGTLLPLVHKQLGLGSISIGEPFFNTMFTWLMVPFALLLGVGPLVRWGRDRPRKIRNLLIIAFISTLVLSLLLPWLFESKVVAMTVLGLAMACWIAVLAIAEAALRISRGTKTTFSYWGMVAAHLGLAVTIVGIAFSQNYSVERDVRMKSGDSVDIHEYRFTFRDVKEVTGPNWRGGVATIGVTRDGKPETVLYAEKRYYNTAGSMMTEAAIDGGITRDLYAALGEELENGAWAVRLYYKPFVRWIWAGGLMMALGGLLCLFDPRYRKRVSPQKTAPEAV |  |  |  | 6.56 | 4.59 |  | > 8 | > 16 |  |  | 6.24 | 9.96
MMRIALFLLTNLAVMVVFGLVLSLTGIQSSSVQGLMIMALLFGFGGSFVSLLMSKWMALRSVGGEVIEQPRNERERWLVNTVATQARQAGIAMPQVAIYHAPDINAFATGARRDASLVAVSTGLLQNMSPDEAEAVIAHEISHIANGDMVTMTLIQGVVNTFVIFISRILAQLAAGFMGGNRDEGEESNGNPLIYFAVATVLELVFGILASIITMWFSRHREFHADAGSAKLVGREKMIAALQRLKTSYEPQEATSMMALCINGKSKSLSELFMTHPPLDKRIEALRTGEYLK | 4.24 ± 0.051 | 5.6 ± 0.59 | 5.25 ± 0.11 | 4.77 ± 0.29 | 4.77 ± 0.48 | 2.45 ± 0.076 | 4.83 ± 0.3 | 8.92 ± 1.5 | 5.48 ± 0.92 | 10.5 ± 1.2 | 4.81 ± 0.22 | 7.97 ± 0.28
MMRKMLLAAALSVTAMTAHADYQCSVTPRDDVIVSPQTVQVKGENGNLVITPDGNVMYNGKQYSLNAAQREQAKDYQAELRSTLPWIDEGAKSRVEKARIALDKIIVQEMGESSKMRSRLTKLDAQLKEQMNRIIETRSDGLTFHYKAIDQVRAEGQQLVNQAMGGILQDSINEMGAKAVLKSGGNPLQNVLGSLGGLQSSIQTEWKKQEKDFQQFGKDVCSRVVTLEDSRKALVGNLK [P0ADS9] | 3.83 ± 0.21 | 5 ± 1 | 5.36 ± 0.32 | 6.04 ± 0.83 | 5.818 ± 0.046 | 2.92 ± 0.17 | 5.11 ± 0.8 | 8.05 ± 1.5 | 5.76 ± 0.15 | 10.3 ± 0.12 | 5.0188 ± 0.0027 | 10 ± 0.48
MMSESNKQQAVNKLTEIVANFTAMISTRMPDDVVDKLKQLKDAETSSMGKIIYHTMFDNMQKAIDLNRPACQDTGEIMFFVKVGSRFPLLGELQSILKQAVEEATVKAPLRHNAVEIFDEVNTGKNTGSGVPWVTWDIIPDNDDAEIEVYMAGGGCTLPGRSKVLMPSEGYEGVVKFVFENISTLAVNACPPVLVGVGIATSVETAAVLSRKAILRPIGSRHPNPKAAELELRLEEGLNRLGIGPQGLTGNSSVMGVHIESAARHPSTIGVAVSTGCWAHRRGTLLVHADLTFENLSHTRSAL |  | 6.19 | 6.18 | 6.4 |  |  |  |  | 6.42 |  | 5.88 | 
MMSFQKIYSPTQLANAMKLVRQQNGWTQSELAKKIGIKQATISNFENNPDNTTLTTFFKILQSLELSMTLCDAKNASPESTEQQNLEW |  |  |  |  |  |  |  | 11.7 | 4.64 |  |  | 12 ± 0.84
MMSKINQTDIDRLIELVGGRGNIATVSHCITRLRFVLNQPANARPKEIEQLPMVKGCFTNAGQFQVVIGTNVGDYYQALIASTGQAQVDKEQVKKAARHNMKWHEQLISHFAVIFFPLLPALISGGLILGFRNVIGDLPMSNGQTLAQMYPSLQTIYDFLWLIGEAIFFYLPVGICWSAVKKMGGTPILGIVLGVTLVSPQLMNAYLLGQQLPEVWDFGMFSIAKVGYQAQVIPALLAGLALGVIETRLKRIVPDYLYLVVVPVCSLILAVFLAHALIGPFGRMIGDGVAFAVRHLMTGSFAPIGAALFGFLYAPLVITGVHQTTLAIDLQMIQSMGGTPVWPLIALSNIAQGSAVIGIIISSRKHNEREISVPAAISAWLGVTEPAMYGINLKYRFPMLCAMIGSGLAGLLCGLNGVMANGIGVGGLPGILSIQPSYWQVFALAMAIAIIIPIVLTSFIYQRKYRLGTLDIV |  |  |  |  | 2.51 | 2.85 ± 0.2 | 4.23 ± 0.33 | 6.59 ± 0.51 |  |  | 4.13 | 6.92
